In US8095350:

Target: T1, Human APOBEC-2 (APO2) containing residues 41-224 (human), Q9Y235
T1 chain: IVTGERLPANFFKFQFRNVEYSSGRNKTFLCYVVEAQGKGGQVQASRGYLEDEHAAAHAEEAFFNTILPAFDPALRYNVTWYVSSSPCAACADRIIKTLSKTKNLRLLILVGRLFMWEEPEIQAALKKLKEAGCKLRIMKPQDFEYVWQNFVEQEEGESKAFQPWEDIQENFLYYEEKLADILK
Assay: X-ray crystal structure, tetramer interface
Settings: remark: other sources report otherwise

B1: Human APOBEC-2 (APO2) containing residues 41-224, Q9Y235 41-224 (enzyme, UniProt Q9Y235 41-224, looked up)
chain: T1 chain
A total buried area within the tetramer interface of 1740 Å^2 was found for B1 in this work.
